# According to IntAct's records for PubMed 11781565:
# B1: Cell division cycle-related protein res1/sct1 (Schizosaccharomyces pombe (strain ATCC 38366 / 972)), P33520 (parent)
# chain: MYNDQIHKITYSGVEVFEYTINGFPLMKRCHDNWLNATQILKIAELDKPRRTRILEKFAQKGLHEKIQGGCGKYQGTWVPSERAVELAHEYNVFDLIQPLIEYSGSAFMPMSTFTPQSNRKPTEAYRRNSPVKKSFSRPSHSLLYPYTSSNNMTSTSRMSGIHDALSLQSDFTRSPDMPSDSFTGSLHDIKASPFSSNNYAQSLLDYFLLPNTTQPPDFVYDRPSDWDVNAGIDEDGHTALHWAAAMGNLEMMHALLQAGANVVAVNYLQQTSLMRCVMFTMNYDLQTFEVVSELLQSAICMNDSFGQTVFHHIALLASSKSKMEAARYYMDILLQNLTATQSVDVAAQIINLQDDHGDTALLICARNGAKKCARLLLSFYASSSIPNNQGQYPTDFLSSKDMSFPENDDSPLNSKIEDNLIDNLKYPQSLDDHLSSKKPISYFSNKLTHQTLPNVFTQLSELSKCHEASLAEKQLTYNLAMEALEQTVRETETCQRLWNERTNNDENYLVNQREDLIHQCKKFLHTLKTARYYLETVQLHQLKKYVTYFSQIWSTDELADISETKNLVGHDTKTNRSSLSSKHEVDLFTAENEAAREKLVEQLCSLQAQRKQKINEILNLLSMGMYNTINTDQSGS
# partner: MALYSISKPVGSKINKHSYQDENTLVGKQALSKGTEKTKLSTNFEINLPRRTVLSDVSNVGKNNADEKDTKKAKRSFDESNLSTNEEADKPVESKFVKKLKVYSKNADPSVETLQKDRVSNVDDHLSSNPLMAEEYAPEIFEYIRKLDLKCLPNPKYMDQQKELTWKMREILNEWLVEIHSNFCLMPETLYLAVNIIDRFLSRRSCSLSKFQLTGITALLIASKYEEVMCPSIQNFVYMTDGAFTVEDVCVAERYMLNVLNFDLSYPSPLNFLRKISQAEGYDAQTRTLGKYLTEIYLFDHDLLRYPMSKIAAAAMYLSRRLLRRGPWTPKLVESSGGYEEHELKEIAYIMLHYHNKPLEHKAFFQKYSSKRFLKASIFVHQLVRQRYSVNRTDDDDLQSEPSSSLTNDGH
# Variants of: B1
# Conditions: with cg22_schpo cig2, P36630
row,Variant,effect of a mutation on the interaction
1,S130A,increasing interaction

# Variants of: B1
# Conditions: with cg22_schpo cig2, P36630
# Remark: another data set of the same source
row,Variant,effect of a mutation on the interaction
1,S130A,disrupting interaction
